This is an account of results in patent publication US20240239881A1 (Innovent, published 2024).

For test [1], the target named is T1, recombinant biotinylated hAngiopoietin-2 protein (R&D, Cat. No.: BT623B/CF) (human, UniProt O15123 19-496, limits assumed, biotinylated (sites not given)).
T1 construct: Bought protein; also called Biotin Ang2; human biotin Ang2 protein
T1 sequence: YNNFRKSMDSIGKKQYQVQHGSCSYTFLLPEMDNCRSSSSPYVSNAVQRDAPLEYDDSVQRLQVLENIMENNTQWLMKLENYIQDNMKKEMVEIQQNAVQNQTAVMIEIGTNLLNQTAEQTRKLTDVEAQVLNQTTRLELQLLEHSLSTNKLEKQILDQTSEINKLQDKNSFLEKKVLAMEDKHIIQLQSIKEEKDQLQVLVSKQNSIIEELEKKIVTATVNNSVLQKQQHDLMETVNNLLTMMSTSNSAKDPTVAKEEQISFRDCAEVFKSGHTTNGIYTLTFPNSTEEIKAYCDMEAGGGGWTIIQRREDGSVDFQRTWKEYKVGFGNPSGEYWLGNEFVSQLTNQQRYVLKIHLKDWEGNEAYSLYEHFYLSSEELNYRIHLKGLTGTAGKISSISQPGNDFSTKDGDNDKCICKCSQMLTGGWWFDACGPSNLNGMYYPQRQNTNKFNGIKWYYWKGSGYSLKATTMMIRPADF
Kind of test: ELISA: biotin Ang2 (R&D BT623B/CF) captured on coated streptavidin (SA), antibody titrated, anti-human IgG-HRP, OD450-OD620, GraphPad fit. The method, then: The binding of 81H10 and hz81H10.4 of the present invention to human biotin Ang2 protein was measured in an SA-biotin Ang2-based ELISA assay.
SA protein (Thermo Fisher) was diluted to 1 μg/ml with PBS, and was coated onto a microtiter plate at 100 μl/well at 4° C. overnight. After three washes with PBST, the plate was blocked with 5% BSA for 1 h. Biotin Ang2 (R&D, Cat. No. BT623B/CF) was incubated at a concentration of 0.5 μg/ml for 1 h. Gradient diluted antibodies (maximum concentration 20 nM, 1:3 serial dilution) were added to the microtiter plate and incubated for 2 h, and the plate was washed three times with PBST. […] Then the plate was washed for 6 times with PBST. Chromogenic reaction was performed with 100 ul TMB and terminated with 100 ul 2N sulfuric acid. The reading of OD₄₅₀-OD₆₂₀ was taken by microplate reader. The concentration-dependent curve was fitted with GraphPad based on the OD₄₅₀-OD₆₂₀.
A general note: An ELISA detects its analyte on a solid surface through an enzyme-linked reagent.

For test [2], the target named is T2, human Ang2 (human, UniProt O15123 19-496, limits assumed).
T2 construct: also called hAng2; h Ang2
T2 sequence: T1 sequence
As to the kind of experiment: ForteBio BLI, antibody on AHQ sensor, 100 nM antigen, 1:1 model. The method, then: The equilibrium dissociation constants (KD) of the above exemplary antibodies of the present invention binding to human Ang2 (h Ang2), cynomolgus monkey Ang2 (cAng2), murine Ang2 (mAng2), and human Ang1 (hAng1) were determined using the biological optical interferometry (ForteBio) assay.
The ForteBio affinity assay was performed according to the existing method (Estep, P et al., High throughput solution-based measurement of antibody-antigen affinity and epitope binning. MAbs, 2013.5 (2): p. 270-8). Briefly, the sensor was equilibrated in the assay buffer off-line for 30 min, followed by on-line detection for 60 s to establish the baseline. Then the purified antibodies obtained as described above were loaded on-line onto an AHQ sensor (ForteBio) for ForteBio affinity assay. The sensors with loaded antibodies were exposed to 100 nM of hAng2, cAng2, mAng2, and hAng1 antigens for 5 min, and then were transferred into the assay buffer for dissociation for 5 min to determine the dissociation rate. Kinetic analysis was performed using a 1:1 binding model.

Test [3] deals with T3, Rabbit ANG2 (rabbit, UniProt G1T9B3 19-496).
T3 sequence: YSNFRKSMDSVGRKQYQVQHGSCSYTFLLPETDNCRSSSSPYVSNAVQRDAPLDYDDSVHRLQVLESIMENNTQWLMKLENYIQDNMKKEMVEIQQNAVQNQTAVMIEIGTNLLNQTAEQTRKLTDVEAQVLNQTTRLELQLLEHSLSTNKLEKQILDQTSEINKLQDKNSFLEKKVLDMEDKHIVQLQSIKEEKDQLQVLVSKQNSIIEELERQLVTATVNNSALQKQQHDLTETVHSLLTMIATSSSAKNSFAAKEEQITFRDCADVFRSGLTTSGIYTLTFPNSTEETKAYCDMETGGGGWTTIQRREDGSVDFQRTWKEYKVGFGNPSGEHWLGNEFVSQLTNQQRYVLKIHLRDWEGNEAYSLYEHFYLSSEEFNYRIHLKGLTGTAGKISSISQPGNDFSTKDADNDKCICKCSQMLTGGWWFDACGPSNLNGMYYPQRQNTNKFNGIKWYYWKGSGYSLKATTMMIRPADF
Kind of test: SPR, Biacore T200, antibody captured on Protein G chip, experiment 1. The method, then:
The antibody was diluted to 1 μg/mL and was captured onto channel 2 for 30 s, and channel 1 was the blank control channel. The gradient-diluted Human ANG2, Rhesus ANG2, Rabbit ANG2, Rat ANG2 and Mouse ANG2 were sequentially injected into channels 1 and 2 of the chip, from low to high concentrations (0-32 nM), at a flow rate of 30 μL/min, with one concentration per cycle, and with 180 s association time and 1200 s dissociation time at 25° C. Finally, the chip was regenerated using Glycine pH 1.5 at 30 μL/min for 30 s. The affinity assay was repeated three times.

B1: humanized antibody hz81H10.4 (antibody, human IgG1, kappa, V domains shown)
VH: EVQLVESGGGLVKPGGSLRLSCAASGFTFSNYWMNWVRQAPGKGLEWVAEIRLKSNNYATHYAESVKGRFTISRDVSKNTVYLQMNSLKTEDTAVYYCTDTAPFAYWGQGTLVTVSS
VL: DIQMTQSPSSLSASVGDRVTITCKASQDVGTDVAWYQQKPGKAPKLLIYWASTRHTGVPSRFSGSGSGTDFTLTISSLQPEDFATYYCQQYSSYPLTFGGGTKVEIKR
notes: also called IBI335
In the case of B1, the half-maximal effective concentration (EC50) (as a rule, the concentration giving half of the maximal effect) in test [1] turned out to be 0.0212 nM. Besides, the Kd – broadly, the equilibrium constant for the complex coming apart – in test [2] is 1.25 nM. Further, in test [3], the Kd came to 0.518 nM; the koff – broadly, the first-order rate constant of dissociation – amounted to 0.000153 s⁻¹; the kon (as a rule, the second-order rate constant of association) is 294000 M⁻¹ s⁻¹.
